Assay results as given in IntAct's records for PubMed 30190310.

B1: Kelch-like protein 12 (Homo sapiens), Q53G59 (parent)
chain: MGGIMAPKDIMTNTHAKSILNSMNSLRKSNTLCDVTLRVEQKDFPAHRIVLAACSDYFCAMFTSELSEKGKPYVDIQGLTASTMEILLDFVYTETVHVTVENVQELLPAACLLQLKGVKQACCEFLESQLDPSNCLGIRDFAETHNCVDLMQAAEVFSQKHFPEVVQHEEFILLSQGEVEKLIKCDEIQVDSEEPVFEAVINWVKHAKKEREESLPNLLQYVRMPLLTPRYITDVIDAEPFIRCSLQCRDLVDEAKKFHLRPELRSQMQGPRTRARLGANEVLLVVGGFGSQQSPIDVVEKYDPKTQEWSFLPSITRKRRYVASVSLHDRIYVIGGYDGRSRLSSVECLDYTADEDGVWYSVAPMNVRRGLAGATTLGDMIYVSGGFDGSRRHTSMERYDPNIDQWSMLGDMQTAREGAGLVVASGVIYCLGGYDGLNILNSVEKYDPHTGHWTNVTPMATKRSGAGVALLNDHIYVVGGFDGTAHLSSVEAYNIRTDSWTTVTSMTTPRCYVGATVLRGRLYAIAGYDGNSLLSSIECYDPIIDSWEVVTSMGTQRCDAGVCVLREK
B2: Kelch repeat and BTB domain-containing protein 8 (Homo sapiens), Q8NFY9 (parent)
chain: MAASADLSKSSPTPNGIPSSDPASDAMDPFHACSILKQLKTMYDEGQLTDIVVEVDHGKTFSCHRNVLAAISPYFRSMFTSGLTESTQKEVRIVGVEAESMDLVLNYAYTSRVILTEANVQALFTAASIFQIPSIQDQCAKYMISHLDPQNSIGVFIFADHYGHQELGDRSKEYIRKKFLCVTKEQEFLQLTKDQLISILDSDDLNVDREEHVYESIIRWFEHEQNEREVHLPEIFAKCIRFPLMEDTFIEKIPPQFAQAIAKSCVEKGPSNTNGCTQRLGMTASEMIICFDAAHKHSGKKQTVPCLDIVTGRVFKLCKPPNDLREVGILVSPDNDIYIAGGYRPSSSEVSIDHKAENDFWMYDHSTNRWLSKPSLLRARIGCKLVYCCGKMYAIGGRVYEGDGRNSLKSVECYDSRENCWTTVCAMPVAMEFHNAVEYKEKIYVLQGEFFLFYEPQKDYWGFLTPMTVPRIQGLAAVYKDSIYYIAGTCGNHQRMFTVEAYDIELNKWTRKKDFPCDQSINPYLKLVLFQNKLHLFVRATQVTVEEHVFRTSRKNSLYQYDDIADQWMKVYETPDRLWDLGRHFECAVAKLYPQCLQKVL

Variants of: B1
Settings: with fxl17_human FBXL17, Q9UF56
Target sequence in this assay (Q9UF56 whole entry): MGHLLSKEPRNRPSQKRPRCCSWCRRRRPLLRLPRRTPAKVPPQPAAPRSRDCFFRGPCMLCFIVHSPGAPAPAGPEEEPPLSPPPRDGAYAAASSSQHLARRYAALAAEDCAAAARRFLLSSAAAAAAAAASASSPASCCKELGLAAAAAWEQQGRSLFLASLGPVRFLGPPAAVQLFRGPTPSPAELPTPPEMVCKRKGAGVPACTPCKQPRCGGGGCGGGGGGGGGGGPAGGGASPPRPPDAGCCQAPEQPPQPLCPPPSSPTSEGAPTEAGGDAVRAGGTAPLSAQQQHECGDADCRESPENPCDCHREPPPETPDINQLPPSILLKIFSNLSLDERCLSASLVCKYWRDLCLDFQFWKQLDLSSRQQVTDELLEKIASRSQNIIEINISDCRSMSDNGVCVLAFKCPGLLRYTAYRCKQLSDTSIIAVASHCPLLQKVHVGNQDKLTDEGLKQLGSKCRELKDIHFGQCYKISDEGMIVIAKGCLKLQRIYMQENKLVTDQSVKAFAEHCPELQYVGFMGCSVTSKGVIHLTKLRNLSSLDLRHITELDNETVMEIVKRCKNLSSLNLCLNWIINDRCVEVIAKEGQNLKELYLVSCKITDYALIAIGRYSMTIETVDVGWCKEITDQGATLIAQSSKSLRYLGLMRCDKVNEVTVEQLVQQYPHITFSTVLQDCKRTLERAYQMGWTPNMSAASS

Variant | effect of a mutation on the interaction
I49D | causing an interaction
I49A | causing an interaction
N24K | causing an interaction
V50A | causing an interaction
N24K;A60K | with no effect
V50A;A60K | with no effect
R27A;A60K | with no effect
C33F;A60K | with no effect
S67A | with no effect
S67E | disrupting interaction strength
R27A | causing an interaction
R27D | with no effect
C33F | causing an interaction

Variants of: B1
Settings: with cul3_human CUL3, Q13618

Variant | effect of a mutation on the interaction
V50A | with no effect

Variants of: B2
Settings: with fxl17_human FBXL17, Q9UF56
Target sequence in this assay (Q9UF56 whole entry): as above

Variant | effect of a mutation on the interaction
L39A | decreasing interaction strength
L39D | disrupting interaction strength
K40D | increasing interaction strength
K40A | with no effect
V67A | increasing interaction strength
V67D | disrupting interaction strength
Y43A | increasing interaction strength
Y43D | disrupting interaction strength
